Protein production data for 20 sequences are collected here from a protein production outcome set (Wang et al. 2014).

A short description of the series: label from the status in PepcDB records.
As to “MRWILFILFCLLGAPAHAVSIPGVTTTTTTDSTTEPAPEPDIEQKKAAYGALADVLDNDTSRKELIDQLRTVAATPPAEPVPKIVPPTLVEEQTVLQKVTEVSRHYGEALSARFGQLYRNITGSPHKPFNPQTFSNALTHFSMLAVLVFGFYWLIRLCALPLYRKMGQWARQKNRERSNWLQLPAMIIGAFIIDLLLLALTLFVGQVLSDNLNAGSRTIAFQQSLFLNAFALIEFFKAVLRLIFCPNVAELRPFTIQDESARYWSRRLSWLSSLIGYGLIVAVPIISNQVNVQIGALANVIIMLCMTVWALYLIFRNKKEITQHLLNFAEHSLAFFSLFIRAFALVWHWLASAYFIVLFFFSLFDPGNSLKFMMGATVRSLAIIGIAAFVSGMFSRWLAKTITLSPHTQRNYPELQKRLNGWLSAALKTARILTVCVAVMLLLSAWGLFDFWNWLQNGAGQKTVDILIRIALILFFSAVGWTVLASLIENRLASDIHGRPLPSARTRTLLTLFRNALAVIISTITIMIVLSEIGVNIAPLLAGAGALGLAISFGSQTLVKDIITGVFIQFENGMNTGDLVTIGPLTGTVERMSIRSVGVRQDTGAYHIIPWSSITTFANFVRGIGSVVANYDVDRHEDADKANQALKDAVAELMENEEIRGLIIGEPNFAGIVGLSNTAFTLRVSFTTLPLKQWTVRFALDSQVKKHFDLAGVRAPVQTYQVLPAPGATPAEPLPPGEPTL”, the protein production entry is “failed”.
As for “MHALYITHPQVKIDPAVPVPEWGLSERGAERAREASRLPWAKALRRIVSSAETKAIETAHMLAETSGAAIEIIEAMHENDRSATGFLPPPEFEKAADWFFAHPEESFQGWERAIDAQARIVEAVKAVLDRHDARQPIAFVGHGGVGTLLKCHIEGRGISRSKDQPAGGGNLFRFSIAEFSLAAASPTCDWTAMETWQG”, the protein production result is “not failed”.
As for “MSAHQGSETVTFGDSSAERPLGRSIMRGMANRCPACGSGRLFRAFLKPVDACAACGEEMHHHRSDDLPPYISIVIIGHIAVGGFMMTDMILNIPMWAHFAIWVPITILAALLTLQPIKGGVIGLQWALRMHGFDRKQPKVQIDGSSH”, the protein production result is “failed”.
On to “SEKYNSLSDFLKEFYIPTYVLSAETEEEEEEESRPTPASPVLVFINSKSGGQLGGELILTYRSLLNHNQVFDLDQETPDKVLRRIYLNLERLKDDDFARQIREKLKIIVAGGDGTAGWLLGVVCDLKLSHPPPIATVPLGTGNNLPFAFGWGKKNPGTDRTAVESFLEQVLKAKVMKIDNWHILMRMKTPKEGGSCDPVAPLELPHSLHAFHRVSPTDELNKEGCHTFRGGFWNYFSLGMDAQISYAFHSERKLHPEKFKNQLVNQSTYVKLGCTQGWFCASLFHPASRNIAQLAKVKIATRNGQWQDLHIPHSIRSIVCLNLPSFSGGLNPWGTPNPRKQRDRGLTPPFVDDGLIEVVGFRNAWHGLVLLAPNGHGTRLAQANRIRFEFHKGATDHTFMRMDGEPWKQPLPLDDETVMVEISHLGQVNMLATHDCRSRSVFDPSTPRHQDGAEDYDDNEDDSVAEGEEFRKFGAADTFKIPDEVDISQLS”, for which the protein production entry was “failed”.
Then “MYKCLIISILTWFSCIVSVYAQAIPKEARNYLEEGKIYYDGANYLKALDSYLGAYKFVPNDPGVNYSIALCYIQTYSYDKALTYLIPAKKAGIKDPLLDYYMGLAYHANSNIDEALKSLTAFQSTLRSSDKELTAQTAKYITYCNNAKTLMLTPVKMTITNLGASVNSAYPDYNPAISVDESTIIYTSRRPNSTGGLISEMDGHYFEDIYMSNKQTNNSWGTSIQIDQTINTTSHDACVGLSSEGQTMIVYKDDGGGDLYYSNLSGQNWSKPISFGKAINTDGWEACGNFSPDGNYLFFVSNKKGGFGGTDIYYAVKNAAGVWGAPVNMGPEINTKEDEFSPYLHADGKTFYFSSQAHTSMGGFDIFQSTIDLSMQPIAVKSKPENLGYPINTVGDEIYFVWSADNKRAYFSSAREGGLGDKDLYLLERPVAKAALVLLKGTISDCKTKEFIQASITVTDIESGKLIGKYVSNSSTGKYIVTLPAGKNYSITVEAKGYLFHSKNINIPKLEEFKEIDDVICLDKIDIGTTIVLNNVFFDVNKSTLRKESETELDKLFDILSKNPKIKIEVAGHTDSDGDTQANLTLSDARAHTVKDYLIGKGISADRIIYVGHGEGKPVVPNDTPENKQLNRRTEIKILEN”, with “failed”; and “SSSKGISNALKDLVEDFERELGRMLSPFELEDLQKTVSDDKTDPDLVRSALREAVFNGKTNWNYIQAILRNWRHEGI”, with “failed”.
On to “MPMMNLIYLHGFRSSSLSIKGQQLKHYCQAFPYIQVHLPDLNLPPHEVIKKIENMIQSMDQVALIGSSLGGFYATQLVAKYQIPAVLINPAMRPWQLFRQLFSDQTLPYTVCETWTLDEQQLTEMEKIAVPVVQAADKILVLLQQGDEVLDYREAERYYSQPAHPSLIFTDAHGNHAMEDFENKLPLILAFL”, for which the protein production entry is on record as “failed”.
In the case of “MAVSLPNSFLQISPCVPSLQLRKPVMAAVKGGKQSVRRSSNTVVQITCRKKELHPEFHEDAKVYCNGELVMTTGGTKKEYVVDVWSGNHPFYLGNRSALMVDADQVEKFRKRFAGLSEIMEIPVLKGEIIMPTKKSKGPKGKKK”, the protein production result is listed as “failed”.
The entry for “MLYKSVTESFNEFIIDRSDATCIRCKVCVRQCAYEVHAYEAKADALTEDNTLCIGCRRCSALCPTGAITIRSNEEVFKRNESWSNAHIRNLYAQADTGGILLAAMGNPAKYPIYWDHMLLDASQVTNPSIDPLREPMELRTYLGKKPHSIEVVRDEQTGKPKLATKLTPQIKMEYPFIFSAMSYGALNLNAHKAMAMAAKELGTLYNTGEGGLHRDLYQYGSNVMVQVASGRFGVSEAYLNAGVAIEIKVGQGAKPGIGGHLPGEKVNDQISETRMIPAGADAISPAPHHDIYSIEDLRQLIFALKEATNYTKPVSVKIAAVHHVAAIASGVARAGADIITIDGFRGGTGAAPQVIRDNVGIPMELALAAVDARLRDEGIRNQVSIVVGGGVRSSGDAIKAIALGADAINMGTSTLLALGCTLCQRCYTGKCPWGITTNNPYLAKRLNPELGAERLVNLVHAWGHEMKEILGGMGLNALESLRGNRYKLRALGLTEKDMNILGVMPAGE” is “failed”; for “MIEPSKITVEQWLNRWLTDYAKPHLRQSTWESYETVLRLHVIPTLGSIPLKKLQPADIQRLYASKLESGLSPTRVRYIHVVLHEAMSQARESGLLLQNPTEAAKPPRHPKKKVQPLEHHHHHH” it is “not failed”.
Regarding “MGHHHHHHSHADLPQWVSERLLQQINQLTNYEPVIGIMGKTGVGKSSLCNALFAGDISPVSDVAACTREPLRFRLQVGDRYITLMDLPGVGESGARDTEYAALYREQLPRLDLVLWLIKADDRALTVDEHFYHQVIGEVYRHKVLFVISQSDKAEPTSGGGQLSTAQKQNISRKICLLHELFQPVHPVCAVSVRLQWGLKVMAERMIKCLP”, the protein production result is reported as “not failed”.
The entry for “MSKELTAKKRAALNRLKTVRGHLDGIVRMLESDAYCVDVMKQISAVQSSLERANRVMLHNHLETCFSTAVLDGHGQAAIEELIDAVKFTPALTGPHARLGGAAVGESATEEPMPDASNM” is “not failed”; for “MIEIRKASTHDATAIQTLLTQLGYPQSLEFIEKKIRLFESDERQFIFVADIDHKLAGFLSLTMIPQIALEGDFARIAYVCVDQQFRGKRIGQTLVAYAEQIAKSWGCNRMELHSGDHRKQAHEFYLGQNYEDAPKYFRKFL” it is “failed”.
Consider “MKVIMTTKVDKASMNIMNKLIENFGFKETEYVFDGNPVYKRGDVLILTTNDEMIYYDYLDREIENQLGFKPEIIAFASRHSSKQKLPALTTHVTGNWGKAMYGGKDESFAVAIPSAMKLSLLKMSELNDLGWTVCYEATHHGPTELEVPSFFIEIGSSEEEWINDRAGEIIAETIIYVLDNYEKGRSKFKVALGIGGGHYAPKQTKRALEGDLAFGHILPKYAQPVSRDVMIKALNRFGEKVEAIYVDWKGSRGETRQLAKSLAQELGLEFIKD”, for which the protein production entry was “not failed”.
Consider “MTTAYNHLCTAFTRLSRFEHLSAIAGWDMQTMMPAKGNLARSEAMAELNVLQHQILTAPQIGEWLKQAEQELLDEQSIDELKLANLREMHRHYHNAVLLPESLVEAKSLAGARCEHAWRQQRIANDWAGFAENLREVVKLSREEAKIRAEAAGTSGYDALLNLYEPGTNSADIDRIFGDLKQWLPALLQKVTTKQQSSEPCLIPQGPFDLEKQRQLGLSVMKVLGFDFNGGRVDVSVHPFCGGVPQDVRITTRYNNQEFLSALMGIVHETGHARYEQNLPREWLGQPIAHARSTAIHESQSLLFEMQLARSNEFLQVIHPLVIQQFGEQPAFAEHNFIALNQRVKTGLIRVDADEVSYPAHVILRYEIEKALIGGEIDVEDIPALWNEKMQQYLGINTEGDYRNGCMQDIHWTDGAFGYFPTYTLGAMYAAQLFHAARSAIPALDSHIANGNLAPLLNWLQQNIWQHGSRYPTAELITKATGEPLNPRYFRQHLERRYL”, for which the protein production entry is “failed”.
Then “MMKIIAFVGMPASGKSEASRIAAEMGIPVIIMGDVIRKEVLKRGLEPNDSNTGMVATDLRKHEGMGAVARRCISQIRETGSELVVVDGVRGIAEVECFRKEFGKGFILISIYAPIEVRFSRVQKRGRSDDMNSIEGLRHRDERELSWGMGEAIDASNVEIENNFTLETFRKDVRDVLSNYLEADLEK”, with “not failed”; and “MDKNIWTSRRRRGRSHHRSPALRQCDSSERYTSGASQSSQDSGHHDVECPSTSSSKAGESSVPDLPGFYFDPEKNRYFRLLPGHNNCNPLTKEGIQLKEMESRRLQLLQQEDKQKKKIARVGFNASSILRKNQLGFLNFSSYCRLSHELRVACMERKKVEIQSSDPSALASDRFNFILADTTSDRLFTVNDVKIGGSKYGIISLQGLKAPTFEVHMHENLYFTNRKVNSVCWASLNHLDSHILLCLMGLAETPGCATLLPASLFVSSHQGTDQPGMLCSFRIPGAWSCAWSLNVQANNCFSTGLSRRVLLTNVVTGHRQSYWTNSDVLAQQFAVKTPLLFNGCRSGEIFAIDLRSPSQAKGWKATQIFHDSAVTSVQVFKEEQYLMASDMAGKIKLWDLRATKCVRQYEGHVNEYAYLPLHMHEEEGILVAVGQDCYTRIWSLHDARLLRTIPSPCPTSKANIPSVAFSPRLGGPRGAPGLLMAVQQDLYCFPYSSSCPDGLKEGRWEPSSVSKEDIL”, with “failed”.
For the sequence “MVYKNILVGLDGSSQADNAFKVACGLANALSADLHPIWIVNRDRGMDSSFGVNEDFYRDQYHQVQDKLVSYVEDAKKAGLKVTGEALVGNIKLVLANEYPKEHGIDLIVLGNTGLNTVEKLVVGSHTSYVIRNSACDVLVVK”, the protein production result was “failed”.
Then “MIKTEKNQTSKVTDEVDQLVQRSKKALAILKSYTQAQIDDLCEKVAVAALDNHMKLAKLAVEETGRGVVEDKAIKNIYASEYIWNSMRHDKTVGVIKEDDEEQLMEIAEPVGIVAGVTPVTNPTSTTVFKTLISLKGRNTIVFGFHPQAQKCSSAAADVMREAIKAAGGPADAVLYIEHPSIEATDALMHHTDVATILATGGPSMVTAAYSSGKPALGVGPGNGPTYVEKTADIKQAVNDIVLSKTFDNGMICASE”, with “failed”; and “MAKSHPRWRLAKKVLTWLFFIAVVVLLVVYAKKVDWGDVWTVIRDYNRTALLSAVGLVIVSYLLYGCYDLLGRLYCGHKLAKRQVMLVSFVCYAFNLTLSTWVGGIGMRYRLYSRLGLPGSTITRIFSLSITTNWLGYILLGGIIFTFGIVQLPDHWYIDAGTLRILGIVLLLIIAVYLWFCAFAKRRHMTIKGQKLVLPSWKFALAQMAISSANWMAMGAIIWLLMGQDVNYFFVLGVLLVSSIAGVIVHIPAGIGVLEAVFLALLAGEHTSQGTIIAALLAYRVLYYFIPLLLALVCYLILESRAKKLRAKNERAMAK”, with “failed”.
